Numbering of substitutions follows the chain as printed. Blank lines part the entries; values can stand above or below the binder they belong to.
Experiments:
[1] = target: T1, human MCSP(D3 domain)-avi-his (human, UniProt Q6UVK1 1582-2224); test: SPR ProteOn XPR36; parental M4-3/ML2 IgG KD against variant IgG KD
T1 construct: Recombinant D3 domain of MCSP (CSPG4) with avi and his tags; also called hu-MCSP(D3 domain)-avi-his; human MCSP antigen
T1 sequence: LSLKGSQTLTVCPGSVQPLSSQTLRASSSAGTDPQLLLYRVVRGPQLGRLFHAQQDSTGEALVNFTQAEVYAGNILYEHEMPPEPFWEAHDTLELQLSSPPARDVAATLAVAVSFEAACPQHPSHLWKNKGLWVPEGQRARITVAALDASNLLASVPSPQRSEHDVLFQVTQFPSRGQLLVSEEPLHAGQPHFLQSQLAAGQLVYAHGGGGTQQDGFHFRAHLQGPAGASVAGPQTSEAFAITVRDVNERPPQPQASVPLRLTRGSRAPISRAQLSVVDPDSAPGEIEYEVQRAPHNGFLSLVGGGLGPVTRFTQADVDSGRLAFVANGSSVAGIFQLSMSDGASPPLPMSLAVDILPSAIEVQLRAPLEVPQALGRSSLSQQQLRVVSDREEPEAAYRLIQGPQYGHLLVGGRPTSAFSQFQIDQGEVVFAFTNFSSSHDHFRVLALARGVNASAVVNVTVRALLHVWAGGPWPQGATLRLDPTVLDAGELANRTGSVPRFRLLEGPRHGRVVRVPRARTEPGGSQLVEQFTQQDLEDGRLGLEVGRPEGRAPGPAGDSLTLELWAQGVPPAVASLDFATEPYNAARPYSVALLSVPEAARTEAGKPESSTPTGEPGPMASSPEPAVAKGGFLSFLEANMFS

cynomolgus MCSP D3 = target: T2, cynomolgus MCSP D3 (cynomolgus, UniProt Q6UVK1 1582-2224 (human entry), limits assumed); test: as above
T2 construct: Recombinant, captured through anti-Penta His in the avidity set-up; also called Cyno MCSP; cynomolgus homologue
T2 chain: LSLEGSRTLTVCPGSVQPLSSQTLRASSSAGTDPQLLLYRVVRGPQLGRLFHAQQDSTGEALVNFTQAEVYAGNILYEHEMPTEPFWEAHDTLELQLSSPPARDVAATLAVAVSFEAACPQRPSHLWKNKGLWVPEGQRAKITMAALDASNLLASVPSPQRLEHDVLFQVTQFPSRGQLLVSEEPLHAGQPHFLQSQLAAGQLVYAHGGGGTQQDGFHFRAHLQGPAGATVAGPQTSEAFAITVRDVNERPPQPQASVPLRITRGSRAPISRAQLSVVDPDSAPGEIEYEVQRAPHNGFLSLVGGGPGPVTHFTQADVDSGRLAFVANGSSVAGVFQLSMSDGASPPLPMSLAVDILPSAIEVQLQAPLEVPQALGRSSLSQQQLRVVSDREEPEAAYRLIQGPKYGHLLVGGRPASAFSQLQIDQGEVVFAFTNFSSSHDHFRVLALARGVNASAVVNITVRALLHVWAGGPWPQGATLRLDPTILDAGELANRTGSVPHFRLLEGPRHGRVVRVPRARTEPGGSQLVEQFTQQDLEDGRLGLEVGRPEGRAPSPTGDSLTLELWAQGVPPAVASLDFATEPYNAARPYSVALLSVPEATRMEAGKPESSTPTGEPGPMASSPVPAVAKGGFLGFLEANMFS

Fold increase over parent (IgG KD) [1]: 6.7 fold
Fold increase over parent (IgG KD) (cynomolgus MCSP D3): 2.9 fold
B1: M4-3(A7)/ML2(E10) IgG (antibody, V domains shown)
VH: QVQLQESGPGLVKPSQTLSLTCTVSGGSITDGYYWNWIRQHPGKGLEWIGYITFDGRNNYNPSLKSRVTISRDTSKNQFSLKLSSVTAADTAVYYCADFDYWGQGTLVTVSS
VL: DIQMTQSPSSLSASVGDRVTITCRASYGIRGYLNWYQQKPGKAPKLLIYYTSSLHSGVPSRFSGSGSGTDFTLTISSLQPEDFATYHCQQYSKLPWTFGQGTKVEIK
notes: Human IgG1 format, purified from mammalian production

Fold increase over parent (IgG KD) [1]: 2.9 fold
Fold increase over parent (IgG KD) (cynomolgus MCSP D3): 2 fold
B2: M4-3/ML2(C5/G3) IgG (antibody, V domains shown)
VH: B1 VH with D31S, F54Y, R57S
VL: B1 VL with Y27R, G31E, S52G, H87Y, K93A
notes: as for B1

Fold increase over parent (IgG KD) [1]: 4 fold
Fold increase over parent (IgG KD) (cynomolgus MCSP D3): 2.9 fold
B3: M4-3(B7)/ML2 IgG (antibody, V domains shown)
VH: B1 VH with D31S, R57I
VL: B1 VL with Y27Q, G31N, H87Y
notes: as for B1

Fold increase over parent (IgG KD) [1]: 2.2 fold
Fold increase over parent (IgG KD) (cynomolgus MCSP D3): 2.5 fold
B4: M4-3(C1)/ML2 IgG (antibody, V domains shown)
VH: B1 VH with D31S, R57S
VL: B1 VL with Y27Q, G31N, H87Y
notes: as for B1

Fold increase over parent (IgG KD) [1]: 10 fold
Fold increase over parent (IgG KD) (cynomolgus MCSP D3): 6.7 fold
B5: M4-3(C1)/ML2(C5) IgG (antibody, V domains shown)
VH: B1 VH with D31S, R57S
VL: B1 VL with Y27R, G31E, S52G, H87Y, K93E
notes: Human IgG1 format, produced in HEK293-EBNA

Fold increase over parent (IgG KD) [1]: 2 fold
Fold increase over parent (IgG KD) (cynomolgus MCSP D3): 1 fold
B6: M4-3/ML2(E10) IgG (antibody, V domains shown)
VH: B1 VH with D31S, F54Y, R57S
VL: B1 VL
notes: as for B1

Fold increase over parent (IgG KD) [1]: 28.6 fold
Fold increase over parent (IgG KD) (cynomolgus MCSP D3): 10 fold
B7: M4-3(A7)/ML2(G3) IgG (antibody, V domains shown)
VH: B1 VH
VL: B1 VL with Y27Q, G31N, F71Y, H87Y, K93A
notes: as for B1

Fold increase over parent (IgG KD) [1]: 6.7 fold
Fold increase over parent (IgG KD) (cynomolgus MCSP D3): 3.3 fold
B8: M4-3/ML2(G3) IgG (antibody, V domains shown)
VH: B1 VH with D31S, F54Y, R57S
VL: B1 VL with Y27Q, G31N, F71Y, H87Y, K93A
notes: as for B1

Fold increase over parent (IgG KD) [1]: 28.6 fold
Fold increase over parent (IgG KD) (cynomolgus MCSP D3): 10 fold
B9: M4-3(A7)/ML2(C5) IgG (antibody, V domains shown)
VH: B1 VH
VL: B1 VL with Y27R, G31E, S52G, H87Y, K93E
notes: as for B1

Fold increase over parent (IgG KD) [1]: 2.5 fold
Fold increase over parent (IgG KD) (cynomolgus MCSP D3): 2 fold
B10: M4-3(A7)/ML2 IgG (antibody, V domains shown)
VH: B1 VH
VL: B1 VL with Y27Q, G31N, H87Y
notes: as for B1

Fold increase over parent (IgG KD) [1]: 5 fold
Fold increase over parent (IgG KD) (cynomolgus MCSP D3): 2.2 fold
B11: M4-3/ML2(E10/G3) IgG (antibody, V domains shown)
VH: B1 VH with D31S, F54Y, R57S
VL: B1 VL with K93A
notes: as for B1

Fold increase over parent (IgG KD) [1]: 5 fold
Fold increase over parent (IgG KD) (cynomolgus MCSP D3): 2 fold
B12: M4-3(D6)/ML2 IgG (antibody, V domains shown)
VH: B1 VH with D31S, R57K
VL: B1 VL with Y27Q, G31N, H87Y
notes: as for B1

Fold increase over parent (IgG KD) [1]: 5 fold
Fold increase over parent (IgG KD) (cynomolgus MCSP D3): 2 fold
B13: M4-3/ML2(C5) IgG (antibody, V domains shown)
VH: B1 VH with D31S, F54Y, R57S
VL: B1 VL with Y27R, G31E, S52G, H87Y, K93E
notes: as for B1

Fold increase over parent (IgG KD) [1]: 2.2 fold
Fold increase over parent (IgG KD) (cynomolgus MCSP D3): 2 fold
B14: M4-3(B8)/ML2 IgG (antibody, V domains shown)
VH: B1 VH with D31S
VL: B1 VL with Y27Q, G31N, H87Y
notes: as for B1

Fold increase over parent (IgG KD) [1]: 4 fold
Fold increase over parent (IgG KD) (cynomolgus MCSP D3): 3.3 fold
B15: M4-3(C1)/ML2(E10) IgG (antibody, V domains shown)
VH: B1 VH with D31S, R57S
VL: B1 VL
notes: as for B5

— patent US20190002564A1 (Hoffmann-La Roche, published 2019)
